What was measured:
A3G = A3G (Homo sapiens?) (UniProt Q9HC16); assay: fluorescence anisotropy; conditions: RT buffer: 50 mM Tris pH 7.4, 40 mM KCl, 10 mM MgCl2, 1 mM DTT; 10 nM F-labeled DNA; 21 C
A3G NPM ins194_195NPM = A3G NPM ins194_195NPM (UniProt Q9HC16); assay: fluorescence anisotropy; conditions: RT buffer: 50 mM Tris pH 7.4, 40 mM KCl, 10 mM MgCl2, 1 mM DTT; 10 nM F-labeled DNA; 21 C
Chain of A3G NPM ins194_195NPM (Q9HC16 whole entry): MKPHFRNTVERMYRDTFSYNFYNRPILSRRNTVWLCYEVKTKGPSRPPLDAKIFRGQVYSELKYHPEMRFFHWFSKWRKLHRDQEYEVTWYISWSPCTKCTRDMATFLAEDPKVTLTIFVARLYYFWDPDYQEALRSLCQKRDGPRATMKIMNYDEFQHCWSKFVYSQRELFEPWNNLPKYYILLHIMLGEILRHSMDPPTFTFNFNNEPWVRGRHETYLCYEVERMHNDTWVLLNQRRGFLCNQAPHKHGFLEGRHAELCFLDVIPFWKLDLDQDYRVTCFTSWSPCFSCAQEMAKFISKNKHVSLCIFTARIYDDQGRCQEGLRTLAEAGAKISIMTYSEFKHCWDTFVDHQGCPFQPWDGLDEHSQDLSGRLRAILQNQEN

Chain of A3G (Homo sapiens?) (Q9HC16 whole entry): as above

GAATATATGTTGAGACCCAAAGTAATGAGAGATTGATTAGATGAGTGTAATGTGATATATGTGTATGAAAGATATAAGACCCAAAGAGTAAAGTTGTTAATGTGTGTAGATATGTTAA [A3G - 63 (118 nt, CCC)]
Kd (A3G): 130 nM
Kd (A3G NPM ins194_195NPM): 56 nM

Source: paper PMC3961392
